# No end group written: not given here.
# How the values were obtained:
# [1] = Oral bioavailability of hydrocodone conjugates in rats; details: for bioavailability (% HC) oral AUC / bioavailability (% HC) oral Cmax: rats, relative to hydrocodone; for Oral:IN Index AUC: ratio of oral to intranasal AUC (% HC); for Oral:IN Index Cmax: ratio of oral to intranasal Cmax (% HC)
# [2] = Intranasal bioavailability of hydrocodone conjugates in rats; details: relative to hydrocodone
Substance,bioavailability (% HC) oral AUC [1] [% HC],bioavailability (% HC) oral Cmax [1] [% HC],Oral:IN Index AUC [1],Oral:IN Index Cmax [1],bioavailability (% HC) IN AUC [2] [% HC],bioavailability (% HC) IN Cmax [2] [% HC]
Asp-Asp-Asp-Asp-Ile-HC (DDDDI-hydrocodone),79,110,2.19,1.72,36,64
Asp-Asp-Gly-Gly-Ile-HC (DDGGI-hydrocodone),82,80,1.71,1.19,48,67
Asp-Asp-Ile-HC,280,238,4.75,2.56,59,93
Asp-Asp-Phe-Phe-Ile-HC (DDFFI-hydrocodone),115,167,2.05,2.69,56,62
Asp-Asp-Pro-Pro-Ile-HC (DDPPI-hydrocodone),92,95,2.04,1.19,45,80
Glu-Glu-Asp-Asp-Ile-HC (EEDDI-hydrocodone),108,129,2.04,1.59,53,81
Glu-Glu-Gly-Gly-Ile-Hydrocodone (EEGGI-hydrocodone) [Glu-Glu-Gly-Gly-Ile-HC],81,77,,,50,56
Glu-Glu-Gly-Gly-Phe-HC (EEGGF-hydrocodone),110,112,1.24,1.15,89,97
Glu-Glu-Ile-HC,83,112,1.60,1.90,52,59
Glu-Glu-Phe-Phe-Ile-HC (EEFFI-hydrocodone),96,129,1.41,1.70,68,76
Glu-Glu-Phe-Phe-Phe-Hydrocodone (EEFFF-hydrocodone) [Glu-Glu-Phe-Phe-Phe-HC],83,89,3.07,1.89,27,47
Gly-Gly-Glu-Glu-Ile-HC (GGEEI-hydrocodone),96,119,1.45,1.55,66,77
Gly-Gly-Pro-Pro-Ile-HC (GGPPI-hydrocodone),94,121,2.14,2.16,44,56
Leu-Pro-Phe-HC,106,125,1.28,1.24,83,101
Lys-Lys-Asp-Asp-Ile-HC (KKDDI-hydrocodone),90,121,2.31,2.16,39,56
Lys-Lys-Ile-HC,80,76,1.18,0.81,68,94
Lys-Lys-Pro-Pro-Ile-HC (KKPPI-hydrocodone),80,76,1.18,0.81,68,94
Pro-Ile-Ile-HC,104,99,1.21,0.97,86,102
Pro-Leu-Ile-HC,141,172,1.62,1.70,87,101
Pro-Pro-Leu-HC,94,108,2.04,2.25,46,48
Tyr-Tyr-Ile-HC,145,234,7.25,6.88,20,34
Tyr-Tyr-Phe-Phe-Ile-HC,113,63,4.35,1.85,26,34
Tyr-Tyr-Pro-Pro-Ile-HC (YYPPI-hydrocodone),218,213,,,10,10
